This note sets out measurements from patent US20230416410A1 (ZOETIS SERVICES, published 2023).

One assay addresses T1, CTLA4bG2a (canine; bovine, UniProt Q9XSI1 36-161, limits assumed).
T1 construct: No linker; also called bIgG2a wildtype (CTLA4 fusion); CTLA4 Fc bIgG2a wildtype
Put plainly: SPR Biacore, bFcg2R amine-coupled on CM5, pH 7.4, 15 C.

Another assay addresses T2, CTLA4bG2b (canine; bovine, UniProt Q9XSI1 36-161, limits assumed).
T2 construct: No linker; also called bIgG2b wildtype (CTLA4 fusion); CTLA4 Fc bIgG2b wildtype
T2 sequence: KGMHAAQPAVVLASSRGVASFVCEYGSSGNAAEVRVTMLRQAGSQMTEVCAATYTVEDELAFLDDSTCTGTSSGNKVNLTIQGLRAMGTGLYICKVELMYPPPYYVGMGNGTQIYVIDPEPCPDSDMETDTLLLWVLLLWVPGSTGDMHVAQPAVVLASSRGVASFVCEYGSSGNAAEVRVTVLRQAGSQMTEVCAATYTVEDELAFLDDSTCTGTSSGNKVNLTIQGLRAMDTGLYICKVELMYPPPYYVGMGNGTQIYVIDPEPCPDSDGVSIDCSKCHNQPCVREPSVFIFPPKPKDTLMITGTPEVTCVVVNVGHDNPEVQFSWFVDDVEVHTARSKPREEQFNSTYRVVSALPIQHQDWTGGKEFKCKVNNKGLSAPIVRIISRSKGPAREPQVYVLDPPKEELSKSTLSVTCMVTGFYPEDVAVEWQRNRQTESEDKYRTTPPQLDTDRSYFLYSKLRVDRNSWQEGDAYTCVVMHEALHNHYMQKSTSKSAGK
The assay is described as above.

Assay [1] has as its target complement component C1q (in bovine complement preserved serum) (bovine, UniProt Q5E9E3 23-244; Q2KIV9 23-247). Kind of assay: cell-based or functional assay.
For a further assay, the target named is T3, recombinant bovine FcgR1 (bovine, biotin on the BAP tag (BirA)).
T3 construct: also called bFcgR1; bFcgRI
Put plainly: SPR Biacore, biotinylated receptor on SA sensor, pH 7.4, 15 C. As to the method: (§1) A Biacore SPR binding assay was designed to test the affinity of bovine IgG subclasses to bFcgR1, bFcgR2 and bFcgR3. All reported KD's were measured by Biacore (Cytiva, Marlborough, MA, USA) using series S SA sensor. Biotinylated-bovine FcgR1, R2 and R3 were captured on the sensor surface using a modified SA capture method to reach the desired surface density. 10 mM HEPES, 150 mM NaCl, 3 mM EDTA, 0.05% v/v surfactant P20, pH7.4 buffer was used as the running and titration buffer. Various concentrations of bovine CTLA4-Fc fusions or mAbs were titrated and flowed over the receptor surface and affinities were determined using Biacore T200 Evaluation software (Cytiva, Marlborough, MA, USA) with 1:1 binding model. The method of double referencing has been applied where the reference flow cell was subtracted from the flow cell containing immobilized receptors and blank runs containing buffer only were subtracted out from all runs. Flow cells were regenerated using 10 mM Glycine pH1.5. Runs were performed at 15° C.
(§2) Biacore methods for bFcgR1, R2, and R3 were performed as described in Examples above. […] Although the two allotypes have different KDs for bFcgR2 and bFcgR3, both wildtype allotypes do bind. All of the mutations, bIgG3Win, bIgG3WinSAS, bIgG3SAS and bIgG3SAP for both the a and b allotypes knocked down binding to bFcgR1, bFcgR2 and bFcgR3 to negligible affinities. Thus, for knocking out receptor binding, the two allotypes compare similarly.

For the next assay, the target named is T4, recombinant bovine FcgR2 (bovine, UniProt Q28110 43-225, limits assumed, biotin on the BAP tag (BirA)).
T4 construct: also called bFcgR2; bFcgRII
T4 sequence: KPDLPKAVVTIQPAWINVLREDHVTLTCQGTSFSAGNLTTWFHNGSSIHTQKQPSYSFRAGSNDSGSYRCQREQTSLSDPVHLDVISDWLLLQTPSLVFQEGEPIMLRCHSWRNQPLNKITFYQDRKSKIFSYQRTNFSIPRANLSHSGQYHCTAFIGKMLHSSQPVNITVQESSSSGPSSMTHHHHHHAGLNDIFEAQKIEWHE
The assay is described as above. As to the method: as §1, §2

For the next assay, the target named is T5, recombinant bovine FcgR3 (bovine, UniProt P79107 17-208, limits assumed, biotin on the BAP tag (BirA)).
T5 construct: also called bFcgR3; bFcgRIII
T5 sequence: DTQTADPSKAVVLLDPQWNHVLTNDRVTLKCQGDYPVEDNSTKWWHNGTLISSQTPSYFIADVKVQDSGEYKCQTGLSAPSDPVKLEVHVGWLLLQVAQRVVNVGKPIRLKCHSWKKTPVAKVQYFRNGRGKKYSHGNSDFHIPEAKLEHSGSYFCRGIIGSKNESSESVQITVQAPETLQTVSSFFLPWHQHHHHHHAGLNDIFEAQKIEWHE
The description is as above. As to the method: as §1, §2

Chain of complement component C1q (in bovine complement preserved serum) (Q5E9E3 23-244, chain 1 of 2): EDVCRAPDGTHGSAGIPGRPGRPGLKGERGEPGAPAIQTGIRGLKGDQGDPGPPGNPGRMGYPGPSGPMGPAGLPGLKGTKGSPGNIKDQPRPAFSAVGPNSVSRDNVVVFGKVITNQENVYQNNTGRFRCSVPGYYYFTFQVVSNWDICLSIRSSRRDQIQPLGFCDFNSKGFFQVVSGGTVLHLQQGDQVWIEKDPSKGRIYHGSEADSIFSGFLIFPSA
Chain of complement component C1q (in bovine complement preserved serum) (Q2KIV9 23-247, chain 2 of 2): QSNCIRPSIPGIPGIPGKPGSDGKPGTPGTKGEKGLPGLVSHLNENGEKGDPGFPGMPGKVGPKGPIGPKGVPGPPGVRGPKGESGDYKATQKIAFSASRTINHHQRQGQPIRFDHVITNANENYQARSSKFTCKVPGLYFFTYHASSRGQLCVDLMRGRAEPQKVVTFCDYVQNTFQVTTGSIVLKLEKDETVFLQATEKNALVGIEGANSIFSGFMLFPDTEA

B1: recombinant bovine Fcg2R (receptor)
chain: GTFPKPIIWAEPSSVVPLGSSVTILCQGPPNTKSFSLNKEGDSTPWNIHPSLEPWDKANFFISNVREQQAGRYHCSHFIGVNWSEPSEPLDLLVAGEEPAGRLRDRPSLSVRPSPSVAPGENVTLLCQSGNRTDTFLLSKEGAAHRPLRLRSQDQDGWYQAEFSLSPVTSAHGGTYRCYRSLSTNPYLLSQPSEPLALLVADYTMQNLIRMGLAASVLLLLGILLCQARHDHGGAREAARS
modifications: biotin on the BAP tag (BirA)
For the molecule B1, the results for the Kd with CTLA4bG2a and with CTLA4bG2b were 41.7 nM and 31.4 nM, respectively.

B2: CTLA4 Fc bIgG3b (Fc fusion)
chain: DMHVAQPAVVLASSRGVASFVCEYGSSGNAAEVRVTVLRQAGSQMTEVCAATYTVEDELAFLDDSTCTGTSSGNKVNLTIQGLRAMDTGLYICKVELMYPPPYYVGMGNGTQIYVIDPEPCPDSDTARRPVPTTPKTTIPPGKPTTQESEVEKTPCQCSKCPEPLGGLSVFIFPPKPKDTLTISGTPEVTCVVVDVGQDDPEVQFSWFVDDVEVHTARTKPREEQFNSTYRVVSALRIQHQDWLQGKEFKCKVNNKGLPAPIVRTISRTKGQAREPQVYVLAPPREELSKSTLSLTCLITGFYPEEIDVEWQRNGQPESEDKYHTTAPQLDADGSYFLYSRLRVNKSSWQEGDHYTCAVMHEALRNHYKEKSISRSPGK
notes: No linker; also called bIgG3b wildtype; CTLA4 Fc bIgG3b wildtype
Turning to B2, the “CDC EC50 Value” in assay [1] amounted to 0.028 µg/mL. For the same molecule, the Kd in the assay with recombinant bovine FcgR1 came out at 12.5 nM; with recombinant bovine FcgR2 it was 706 nM; with recombinant bovine FcgR3, 49.6 nM.
